Data taken from patent publication US20130243764A1 (published 2013).

Tests used:
[1] = molecular target: TNF alpha (species not given); experiment: cell-based or functional assay
[2] = molecular target: TNF alpha (species not given); experiment: cell-based or functional assay; remark: listed apart in the source

B1: BPC1500 (antibody, V domains shown)
VH: EVQLVESGGGLVQPGRSLRLSCAASGFTFDDHALHWVRQAPGKGLEWVSAITWNSGHIDYADSVEGRFTISRDNAKNSLYLQMNSLRAEDTAVYYCAKVRYLSTASSLDYWGQGTLVTVSS
VL: not shown
In the case of B1, the “IC50 value, L929 neutralisation assay (cell viability)” value [1] is reported as 0.13 µg/mL and the “IC50 value, TNFα-induced IL-6 release assay (whole blood)” value [2] is reported as 0.11 nM.
